In PMC11921551:

Assays:
[1] = biological target: Recombinant human CD36 (human) (UniProt P16671); assay: AFM force spectroscopy; receptor on the AFM probe tip through PEG (micro-droplet method), lipoprotein immobilised on mica; PBS pH 7.4, 37 °C, loading force 0.5 nN for 2 s, loading speed 200 nm/s; n = 200 interactions
[2] = biological target: Recombinant human LDL receptor (LDLR) (human) (UniProt P01130); assay: AFM force spectroscopy; LDLR on the AFM probe through PEG (traditional immersion method), LDL immobilised on mica; PBS pH 7.4, 37 °C; n = 200 interactions
Chain of Recombinant human LDL receptor (LDLR) (human) (P01130 22-788): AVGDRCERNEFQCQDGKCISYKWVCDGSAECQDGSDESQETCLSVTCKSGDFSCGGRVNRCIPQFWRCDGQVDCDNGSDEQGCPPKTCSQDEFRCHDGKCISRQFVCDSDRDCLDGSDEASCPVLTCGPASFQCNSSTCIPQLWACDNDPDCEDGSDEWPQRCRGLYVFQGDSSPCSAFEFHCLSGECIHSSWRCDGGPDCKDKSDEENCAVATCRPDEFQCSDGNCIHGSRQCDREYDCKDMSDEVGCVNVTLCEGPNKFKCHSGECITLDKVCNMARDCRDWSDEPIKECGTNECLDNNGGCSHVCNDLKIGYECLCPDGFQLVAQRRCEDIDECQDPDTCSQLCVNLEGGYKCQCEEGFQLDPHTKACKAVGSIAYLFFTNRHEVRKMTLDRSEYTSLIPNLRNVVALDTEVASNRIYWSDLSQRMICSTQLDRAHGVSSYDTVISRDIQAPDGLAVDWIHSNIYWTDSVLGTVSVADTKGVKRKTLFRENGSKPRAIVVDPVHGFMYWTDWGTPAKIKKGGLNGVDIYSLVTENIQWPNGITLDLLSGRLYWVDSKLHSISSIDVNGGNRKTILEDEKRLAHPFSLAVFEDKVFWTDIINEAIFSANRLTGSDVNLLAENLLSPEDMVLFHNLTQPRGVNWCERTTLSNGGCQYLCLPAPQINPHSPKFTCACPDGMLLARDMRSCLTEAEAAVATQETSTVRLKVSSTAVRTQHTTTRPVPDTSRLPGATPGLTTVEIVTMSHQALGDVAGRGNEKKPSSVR

[3] = biological target: Recombinant human LDL receptor (LDLR) (human) (UniProt P01130); assay: AFM force spectroscopy; receptor on the AFM probe tip through PEG (micro-droplet method), lipoprotein immobilised on mica; PBS pH 7.4, 37 °C, loading force 0.5 nN for 2 s, loading speed 200 nm/s; n = 200 interactions

Row | average interaction force [1] | average specific interaction force [2] | average specific interaction force [3] | Substance
1 | 229 pN | – | – | Human oxidized low-density lipoprotein (oxLDL) (from UniProt P04114 28-4563) (complex)
2 | – | 322 pN | 231 pN | Human low-density lipoprotein (LDL), P04114 28-4563
